The values below come from PMC3979721, “Biochemical Properties of Ectoine Hydroxylases from Extremophiles and Their Wider Taxonomic Distribution among Microorganisms” (PLoS ONE, 2014).

Substrate in data set [1]: CC1=N[C@H](C(=O)O)CCN1
The data set is described as follows: HPLC assay of 5-hydroxyectoine formation. The data set is classed as biochemical, Stutzerimonas stutzeri. The settings on record: apparent, with 2-oxoglutarate, Fe(II), O2, optimum pH 7.5, 35 °C and optimised salt, kcat per homodimer. From the text: (§1) HPLC assay of 5-hydroxyectoine formation on EctD from P. stutzeri

Substrate in data set [2]: O=C(O)CCC(=O)C(=O)O
Nature of the data set: HPLC assay of 5-hydroxyectoine formation. The data set is classed as biochemical, Stutzerimonas stutzeri. As to conditions: apparent, co-substrate, with ectoine, Fe(II), O2, pH 7.5, 35 °C.
From the text: as §1

Data set [3] deals with the molecule itself. Nature of the data set: SEC; 1 ml of protein at 5 mg/ml on a HiLoad 16/600 Superdex 200 pg column, 20 mM TES-buffer containing 150 NaCl; size against standards of 29, 66 and 150 kDa (Fig. S6). For orientation: Size exclusion chromatography separates by hydrodynamic size, large species first.
Substrate in data set [4]: CC1=N[C@H](C(=O)O)CCN1
Nature of the data set: HPLC assay of 5-hydroxyectoine formation. The data set is classed as biochemical, Sphingopyxis alaskensis. The settings on record: apparent, with 2-oxoglutarate, Fe(II), O2, optimum pH 8.0, 40 °C and optimised salt, kcat per homodimer. From the text: (§2) HPLC assay of 5-hydroxyectoine formation on EctD from S. alaskensis

Substrate in data set [5]: O=C(O)CCC(=O)C(=O)O
The data set is described as follows: HPLC assay of 5-hydroxyectoine formation. The data set is classed as biochemical, Sphingopyxis alaskensis. As to conditions: apparent, co-substrate, with ectoine, Fe(II), O2, pH 8.0, 40 °C.
From the text: as §2

Substrate in data set [6]: CC1=N[C@H](C(=O)O)CCN1
The data set is described as follows: HPLC assay of 5-hydroxyectoine formation. The settings on record: apparent, with 2-oxoglutarate, Fe(II), O2, optimum pH 8.0, 32 °C and optimised salt, kcat per homodimer. The data set is classed as biochemical, Acidiphilium cryptum. From the text:
(§3) HPLC assay of 5-hydroxyectoine formation on EctD from A. cryptum

Substrate in data set [7]: O=C(O)CCC(=O)C(=O)O
The data set is described as follows: HPLC assay of 5-hydroxyectoine formation. The data set is classed as biochemical, Acidiphilium cryptum. The settings on record: apparent, co-substrate, with ectoine, Fe(II), O2, pH 8.0, 32 °C.
From the text: as §3

Substrate in data set [8]: CC1=N[C@H](C(=O)O)CCN1
Nature of the data set: HPLC assay of 5-hydroxyectoine formation. The data set is classed as biochemical, Halomonas elongata. As to conditions: apparent, with 2-oxoglutarate, Fe(II), O2, optimum pH 8.0, 32 °C and optimised salt, kcat per homodimer. From the text: (§4) HPLC assay of 5-hydroxyectoine formation on EctD from H. elongata

Substrate in data set [9]: O=C(O)CCC(=O)C(=O)O
The data set is described as follows: HPLC assay of 5-hydroxyectoine formation. The settings on record: apparent, co-substrate, with ectoine, Fe(II), O2, pH 8.0, 32 °C. The data set is classed as biochemical, Halomonas elongata.
From the text: as §4

Substrate in data set [10]: CC1=N[C@H](C(=O)O)CCN1
The data set is described as follows: HPLC assay of 5-hydroxyectoine formation. The data set is classed as biochemical, Virgibacillus salexigens. The settings on record: apparent, with 2-oxoglutarate, Fe(II), O2, TES buffer, optimum pH 7.5, 32 °C and optimised salt, kcat per homodimer. From the text: (§5) HPLC assay of 5-hydroxyectoine formation on EctD from V. salexigens (VsEctD)

Substrate in data set [11]: O=C(O)CCC(=O)C(=O)O
Nature of the data set: HPLC assay of 5-hydroxyectoine formation. The data set is classed as biochemical, Virgibacillus salexigens. As to conditions: apparent, co-substrate, varied 0-50 mM, with ectoine, Fe(II), O2, pH 7.5, 32 °C.
From the text: as §5

B1: EctD from P. stutzeri (Stutzerimonas stutzeri A1501) (protein)
chain: MQADLYPSRQEDQPSWQERLDPVVYRSDLENAPIAAELVERFERDGYLVIPNLFSADEVALFRAELERMRQDPAVAGSGKTIKEPDSGAIRSVFAIHKDNELFARVAADERTAGIARFILGGDLYVHQSRMNFKPGFTGKEFYWHSDFETWHIEDGMPRMRCLSCSILLTDNEPHNGPLMLMPGSHKHYVRCVGATPENHYEKSLRKQEIGIPDQNSLSELASRFGIDCATGPAGSVVFFDCNTMHGSNGNITPSARSNLFYVYNHVDNAVQAPFCEQKPRPAFVAERENFKPLDIRPQQYL
notes: homodimer
As for B1, in data set [1], the Km (in general, the concentration of substrate that gives half-maximal velocity) was found to be 6.2 ± 0.4 mM; the turnover number (kcat) (commonly the maximal rate divided by the concentration of active sites) is 8.9 s⁻¹; the specificity constant (kcat/Km) (commonly the second-order rate constant that governs catalysis at low substrate concentration) stood at 1440 M⁻¹ s⁻¹. Besides, the Km in data set [2] was 4.6 ± 0.5 mM.

B2: Sphingopyxis alaskensis EctD protein (ectoine hydroxylase) (enzyme, UniProt Q1GNW5 1-306, looked up)
chain: MQDLYPSRQRADAEMRPRLDPVVHSEWTNDAPISARQAAAFDRDGYIVLEDIFSADEVAFLQKAAGNLLADPAALDADTIVTEPQSNEIRSIFEIHAQSPVMARLAADARLADVARFLLGDEVYIHQSRLNYKPGFKGREFYWHSDFETWHVEDGMPRMRALSMSVLLAENTPHNGPLMVIPGSHRTYLTCVGETPDDHYLSSLKKQEYGVPDEESLAELAHRHGIVAPTGKPGTVILFDCNLMHGSNGNITPFPRANAFLVYNAVSNRLEKPFGVEKPRPWFLARRGEPAALRVERGPLVETVPA
notes: Ectoine hydroxylase EctD of Sphingopyxis alaskensis; ectD gene amplified from chromosomal DNA; 35.29 kDa with the nine-residue Strep-tag II peptide; Contains about 0.87-0.96 mol iron per mol protein; also called EctD from S. alaskensis; S. alaskensis enzyme; not shown: Strep-tag II, C-terminal, kept
Consider B2, for which the stoichiometry N (commonly the number of molecules, sites or subunits per partner or assembly) in data set [3] came to 2. Besides, in data set [4], the Km was found to be 9.8 ± 0.5 mM, the kcat is 1.2 s⁻¹ and the catalytic efficiency (kcat/Km) worked out at 120 M⁻¹ s⁻¹. In data set [5], the Km amounted to 2.7 ± 0.3 mM.

B3: EctD from A. cryptum (Acidiphilium cryptum JF-5) (protein)
chain: MDDLYPSRREPTPSLLPRHDPVVHGRWAPGAPLSDEQTRFYDTNGYLVLENVFDPAEIALLQSGSMDLLANPAGLDRETIITERGSDEVRSIFAIHAQNELLGRLAADSRIAGVARFLLDDDVYIHQSRLNYKPGFDGKEFYWHSDFETWHVEDGMPRMRALSMSILLAENTANNGPLMVIPGSHRKYLTCVGETPENHYRSSLKKQEYGVPDREMLTALASDHGIVAPTGKAGTVVLFDCNTMHGSNGNITPFPRSNAFFVFNAKANSLVEPFGPKSRRPDFIADRAFTTVDIVKGPLVRRERAA
notes: homodimer
For the protein B3, in [6], the Km worked out at 10.0 ± 0.6 mM, the kcat was 3.4 s⁻¹ and the kcat/Km was 340 M⁻¹ s⁻¹. Besides, in [7], the Km turned out to be 4.1 ± 0.4 mM.

B4: EctD from H. elongata (Halomonas elongata DSM 2581) (protein)
chain: MSVQTSSNRPLPQANLHIATETPEADSRIRSAPRPGQDPYPTRLSEPLDLPWLNRREPVVKGEEADGPLSAAQLDTFERQGFIFEPDFLKGEELEALRHELNALLARDDFRGRDFAITEPQGNEIRSLFAVHYLSRVFSRLANDERLMGRARQILGGEPYVHQSRINYKPGFEGKGFNWHSDFETWHAEDGMPAMHAVSASIVLTDNHTFNGPLMLVPGSHRVFVPCLGETPEDHHRQSLKTQEFGVPSRQALRELIDRHGIEAPTGAAGGLLLFDCNTLHGSNANMSPDPRSNAFFVYNRRDNRCVEPYAASKRRPRFLAHEPDEAWSPDG
notes: homodimer
As for B4, in [8], the Km is 5.7 ± 0.6 mM, the kcat came out at 2.8 s⁻¹ and the kcat/Km stood at 490 M⁻¹ s⁻¹. Moreover, in data set [9], the Km stood at 4.8 ± 0.4 mM, the kcat is 2.8 s⁻¹ and the specificity constant (kcat/Km) amounted to 490 M⁻¹ s⁻¹.

B5: EctD from V. salexigens (VsEctD) (Virgibacillus salexigens) (protein)
chain: MEDLYPSRQNNQPKILKRKDPVIYTDRSKDNQAPITKEQLDSYEKNGFLQIKNFFSEDEVIDMQKAIFELQDSIKDVASDKVIREPESNDIRSIFHVHQDDNYFQDVANDKRILDIVRHLLGSDVYVHQSRINYKPGFKGKEFDWHSDFETWHVEDGMPRMRAISVSIALSDNYSFNGPLMLIPGSHNYFVSCVGETPDNNYKESLKKQKLGVPDEESLRELTRIGGGISVPTGKAGSVTLFESNTMHGSTSNITPYPRNNLFMVYNSVKNRLVEPFSGGEKRPEYIAVREKQPVYSAVN
notes: homodimer
On to B5, for which, in [10], the Km amounted to 5.9 ± 0.3 mM, the kcat was found to be 7.7 s⁻¹ and the kcat/Km turned out to be 1310 M⁻¹ s⁻¹. Also, in data set [11], the Km is 4.9 ± 0.3 mM.
